How the values were obtained:
[1] = biological target: synthetic D-streptavidin (mirror-image streptavidin) (S. avidinii); assay: SEC; analytical SEC of the folded proteins, with molecular weight standards
[2] = biological target: synthetic L-streptavidin (S. avidinii); assay: as above

Row | Substance | stoichiometry N [1] | stoichiometry N [2]
1 | synthetic D-streptavidin (mirror-image streptavidin) | 4 | –
2 | synthetic L-streptavidin (natural protein) | – | 4

Source: PMC12593833
